According to paper PMC5261807 (2017):
Non-standard residues stand in square brackets, D forms with d. No end group written: not given here. Arg(Me2a) = CN(C)C(=N)NCCC[C@H](N)C(=O)O; Lys(Me3) = C[N+](C)(C)CCCC[C@H](N)C(=O)O; Arg(Me2s) = CN=C(NC)NCCC[C@H](N)C(=O)O; pT = C[C@@H](OP(=O)(O)O)[C@H](N)C(=O)O; Lys(Me2) = CN(C)CCCC[C@H](N)C(=O)O; Me2s = symmetric dimethyl (on Arg); pS = N[C@@H](COP(=O)(O)O)C(=O)O; Lys(Me) = CNCCCC[C@H](N)C(=O)O; Me3 = trimethyl (on Lys)

T1: Bdf1 bromodomain 2 (GST-tagged, WT) (Saccharomyces cerevisiae (strain ATCC …, UniProt P35817))
T1 chain: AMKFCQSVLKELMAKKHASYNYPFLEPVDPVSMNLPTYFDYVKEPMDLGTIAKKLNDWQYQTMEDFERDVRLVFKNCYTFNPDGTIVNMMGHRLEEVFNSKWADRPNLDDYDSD

T2: Bdf1 bromodomain 1 (GST-tagged, WT) (Saccharomyces cerevisiae (strain ATCC …, UniProt P35817))
T2 chain: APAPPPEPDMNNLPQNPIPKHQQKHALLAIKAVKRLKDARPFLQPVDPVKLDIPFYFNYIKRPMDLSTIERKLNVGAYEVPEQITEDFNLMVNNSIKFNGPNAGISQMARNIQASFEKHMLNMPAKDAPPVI


Columns and labels:
[1] = molecular target: T1, Bdf1 bromodomain 2 (GST-tagged, WT); experiment: histone peptide array probed with recombinant GST-bromodomain, signal normalised to myc peptide control
[2] = molecular target: T2, Bdf1 bromodomain 1 (GST-tagged, WT); experiment: as above

| Binder | binding score [1] | binding score [2] |
| --- | --- | --- |
| PDPAKSAPAPKKGSK(Ac)KAVT | 0 | 0.00825 |
| ARTKQTARKSTGGKAPRKQ (A R T Kme1 Q T A Rme2a Kme2 S T G G K A P R K Q) | 0.00738 | 0.00699 |
| PRKQLATKAARK(Ac)[pS]APATGG | 0 | 0 |
| A[Arg(Me2s)][pT][Lys(Me)]QTARKSTGGKAPRKQ | 0.00344 | 0.00323 |
| ARTKQTARKSTGGKAPRKQ (A R T K Q T A R Kme1 S T G G K A P R K Q) | 0.00482 | 0 |
| ARTKQTARKSTGGKAPRKQ (A R T Kac Q T A Rme2a Kme3 S T G G K A P R K Q) | 0 | 0.0328 |
| ARTKQTARKSTGGKAPRKQ (A Rme2s T Kme1 Q T A Rme2a Kac S T G G K A P R K Q) | 0.00462 | 0.00628 |
| A[Arg(Me2s)]TKQTARKSTGGKAPRKQ | 0 | 0.0111 |
| ARTKQTARKSTGGKAPRKQ (A R T K Q T A Rme2s Kac pS T G G K A P R K Q) | 0.00403 | 0.00484 |
| A[Arg(Me2s)]TK(Ac)QTA[Arg(Me2a)][Lys(Me3)]STGGKAPRKQ | 0.00836 | 0.0145 |
| ARTKQTA[Arg(Me2s)]K(Ac)S[pT]GGKAPRKQ | 0.00679 | 0.0118 |
| ARTKQTARKSTGGKAPRKQ (A Rme2a T Kme3 Q T A Rme2a Kme2 S T G G K A P R K Q) | 0 | 0 |
| ARTKQTARKSTGGKAPRKQ (A Rme2a pT Kme3 Q T A R K S T G G K A P R K Q) | 0.000885 | 0.00789 |
| [pS]GRGKQGGK(Ac)ARAKAKSRSS | 0.00817 | 0 |
| ARTKQTARKSTGGKAPRKQ (A R T Kme1 Q T A Rme2a Kme3 S T G G K A P R K Q) | 0 | 0.00179 |
| ARTKQTARKSTGGKAPRKQ (A R T Kme3 Q T A Rme2a Kac S T G G K A P R K Q) | 0.0127 | 0.0142 |
| PRKQLATKAA[Arg(Me2a)][Lys(Me)][pS]APATGG | 0 | 0 |
| ARTKQTARKSTGGKAPRKQ (A Rme2s T Kme1 Q T A R Kme3 S T G G K A P R K Q) | 0.000295 | 0 |
| SGRGKGGKGLGKGGAKRHR (S G R G Kac G G Kac G L G K G G A K R H R) | 0.33 | 0.146 |
| PDPAK(Ac)SAPAPKKGSKKAVT | 0 | 0.00502 |
| ART[Lys(Me2)]QTA[Arg(Me2a)][Lys(Me)]STGGKAPRKQ | 0 | 0.000717 |
| ARTKQTARKSTGGKAPRKQ (A R T K Q T A R Kme2 S T G G K A P R K Q) | 0.00679 | 0.00269 |
| ARTKQTARKSTGGKAPRKQ (A Rme2a T Kme3 Q T A Rme2s Kac S T G G K A P R K Q) | 0.0261 | 0.0181 |
| PDPAK(Ac)SAPAPKK(Ac)G[pS]KKAVT | 0 | 0.00663 |
| SGRGKGGKGLGKGGAKRHR (pS G Rme2s G Kac G G K G L G K G G A K R H R) | 0.107 | 0.00968 |
| PRKQLATKAA[Arg(Me2s)]K(Ac)[pS]APATGG | 0 | 0.0061 |

| Binder | binding score [1] | binding score [2] |
| --- | --- | --- |
| ARTKQTARKSTGGKAPRKQ (A Rme2s T Kme3 Q T A Rme2s K S T G G K A P R K Q) | 0 | 0.00861 |
| A[Arg(Me2a)]TK(Ac)QTA[Arg(Me2a)][Lys(Me)]STGGKAPRKQ | 0 | 0.00897 |
| ARTKQTARKSTGGKAPRKQ (A Rme2s pT Kme3 Q T A R K S T G G K A P R K Q) | 0.00895 | 0.00538 |
| SGRGK(Ac)QGGKARAKAKSRSS | 0.0459 | 0 |
| PRKQLATKAA[Arg(Me2a)]K(Ac)SAPATGG | 0.0393 | 0 |
| ARTKQTARKSTGGKAPRKQ (A R T K Q T A Rme2s Kme3 S pT G G K A P R K Q) | 0.00561 | 0 |
| ART[Lys(Me)]QTA[Arg(Me2s)][Lys(Me)]STGGKAPRKQ | 0 | 0.0199 |
| ARTKQTA[Arg(Me2a)]K(Ac)S[pT]GGKAPRKQ | 0 | 0.0043 |
| ARTKQTARKSTGGKAPRKQ (A Rme2a T Kme2 Q T A Rme2s Kme2 S T G G K A P R K Q) | 0 | 0 |
| PRKQLATKAA[Arg(Me2s)][Lys(Me)]SAPATGG | 0 | 0 |
| A[Arg(Me2a)]T[Lys(Me)]QTA[Arg(Me2s)][Lys(Me2)]STGGKAPRKQ | 0 | 0.00448 |
| ARTKQTARKSTGGKAPRKQ (A Rme2a T Kme3 Q T A Rme2a K S T G G K A P R K Q) | 0.00541 | 0.0102 |
| PDPAKSAPAPKKG[pS]K(Ac)KAVT | 0.142 | 0.0142 |
| ARTKQTARKSTGGKAPRKQ (A Rme2s T Kme1 Q T A Rme2a Kme2 S T G G K A P R K Q) | 0 | 0.00502 |
| ARTK(Me3)QTAR(Me2s)K(Me)STGGKAPRKQ | 0 | 0 |
| SGRGKGGKGLGKGGAKRHR (S G Rme2s G Kac G G K G L G K G G A K R H R) | 0.0652 | 0 |
| ARTKQTARKSTGGKAPRKQ (A Rme2s T Kme3 Q T A Rme2a Kme3 S T G G K A P R K Q) | 0.00108 | 0.00681 |
| ARTKQTARKSTGGKAPRKQ (A Rme2a T Kac Q T A R Kme2 S T G G K A P R K Q) | 0.00915 | 0.0255 |
| [pS]GRGKQGGKARAK(Ac)AKSRSS | 0.0125 | 0.00484 |
| PRKQLATKAAR[Lys(Me2)][pS]APATGG | 0 | 0 |
| ARTKQTARKSTGGKAPRKQ (A Rme2a T Kme1 Q T A Rme2s Kac S T G G K A P R K Q) | 0.0204 | 0.00717 |
| A[Arg(Me2a)]T[Lys(Me2)]QTARKSTGGKAPRKQ | 0 | 0.00161 |
| ARTKQTARKSTGGKAPRKQ (A Rme2s T Kme1 Q T A Rme2s Kme1 S T G G K A P R K Q) | 0.00443 | 0.0134 |
| SGRGKGGKGLGKGGAKRHR (pS G Rme2a G K G G K G L G K G G A K R H R) | 0 | 0 |
| SGRGKGGKGLGKGGAKRHR (pS G Rme2a G Kac G G K G L G K G G A K R H R) | 0.0674 | 0.00753 |
